B1: LINE1-full (parent)
chain: UACGUAGGUGGUUUUCCCCUGAUAGUGCUAAGGGGGCCUGGAAGUUUGGACUGGGCAGAGCUCAACACAGCGUGGCAAAGUGGCUGUGGCUAGACUGCCUCUCUGGAUUCCUCGUCACUCAGCAGGGCAUCUCUGAGAGAAAUGCC

In the data set the parent is B1. The data set can be described thus: self-cleavage, relative activity (ratio to wild type); higher = more cleavage; in vitro, sequencing; the parent is a self-cleaving ribozyme.
In the case of UACGUAGGUGGUUUUCCCCUGAUAGUGCUAAGGGGGCCUGGAGGUUUGGACUGGGCAGAGCUCAACACAGCGUGGCAAAGUGGCUGUGGCUAGCCUGCCUCUCUGGAUUCCUCGUCACUCAGCAGGGCAUCUCUGAGAGAAAUGCC [A43G A94C], the self-cleavage is 0.14.

Regarding UACGUAGGUGGUUUUCCCCUGAUAGUGCUAAGGGGGCCUGGAGGUUUGGACUGGGCAGAGCUCAACACAGCGUGGCAAAGUGGCUGUGGCUAGUCUGCCUCUCUGGAUUCCUCGUCACUCAGCAGGGCAUCUCUGAGAGAAAUGCC [A43G A94U], the self-cleavage was 0.16.

UACGUAGGUGGUUUUCCCCUGAUAGUGCUAAGGGGGCCUGGAGGUUUGGACUGGGCAGAGCUCAACACAGCGUGGCAAAGUGGCUGUGGCUAGACUGCCUCUCUGGAUUCCUCGUCACUCAGCAGGGCAUCUCUGAGAGGAAUGCC [A43G A140G]: the self-cleavage is 1.35.

On to UACGUAGGUGGUUUUCCCCUGAUAGUGCUAAGGGGGCCUGGAGGUUUGGACUGGGCAGAGCUCAACACAGCGUGGCAAAGUGGCUGUGGCUAGAUUGCCUCUCUGGAUUCCUCGUCACUCAGCAGGGCAUCUCUGAGAGAAAUGCC [A43G C95U], for which the self-cleavage amounted to 0.16.

Take UACGUAGGUGGUUUUCCCCUGAUAGUGCUAAGGGGGCCUGGAGGUUUGGGCUGGGCAGAGCUCAACACAGCGUGGCAAAGUGGCUGUGGCUAGACUGCCUCUCUGGAUUCCUCGUCACUCAGCAGGGCAUCUCUGAGAGAAAUGCC [A43G A50G]: the self-cleavage amounted to 1.24.

As for UACGUAGGUGGUUUUCCCCUGAUAGUGCUAAGGGGGCCUGGAGGUUUGGCCUGGGCAGAGCUCAACACAGCGUGGCAAAGUGGCUGUGGCUAGACUGCCUCUCUGGAUUCCUCGUCACUCAGCAGGGCAUCUCUGAGAGAAAUGCC [A43G A50C], the self-cleavage was determined as 1.73.

As for UACGUAGGUGGUUUUCCCCUGAUAGUGCUAAGGGGGCCUGGAGGUUUGGACUGGGCAGAGCUCAACACAGCGUGGCUAAGUGGCUGUGGCUAGACUGCCUCUCUGGAUUCCUCGUCACUCAGCAGGGCAUCUCUGAGAGAAAUGCC [A43G A77U], the self-cleavage was 1.05.

Turning to UACGUAGGUGGUUUUCCCCUGAUAGUGCUAAGGGGGCCUGGAGGUUUGGACUGGGCAGAGCUCAACACAGCGUGGCAACGUGGCUGUGGCUAGACUGCCUCUCUGGAUUCCUCGUCACUCAGCAGGGCAUCUCUGAGAGAAAUGCC [A43G A79C], the self-cleavage worked out at 2.63.

Consider UACGUAGGUGGUUUUCCCCUGAUAGUGCUAAGGGGGCCUGGAGGUUUGGACUGGGCAGAGCUCAACACAGCGUGGCAAAGUGGCUGUGGCUAGACUGCCUCUCUGGAUUCCUCGUCACUCAGCAGGGGAUCUCUGAGAGAAAUGCC [A43G C128G], for which the self-cleavage was determined as 0.77.

Consider UACGUAGGUGGUUUUCCCCUGAUAGUGCUAAGGGGGCCUGGAGGUUUGGACUGGGCAGAGCUCAACACAGCGUGGCAAAGUGGCUGUGGCUGGACUGCCUCUCUGGAUUCCUCGUCACUCAGCAGGGCAUCUCUGAGAGAAAUGCC [A43G A92G], for which the self-cleavage was 0.22.

Consider UACGUAGGUGGUUUUCCCCUGAUAGUGCUAAGGGGGCCUGGAGGUUUGGACUGGGCAGAGCUCAACACAGCGUGGCACAGUGGCUGUGGCUAGACUGCCUCUCUGGAUUCCUCGUCACUCAGCAGGGCAUCUCUGAGAGAAAUGCC [A43G A78C], for which the self-cleavage came out at 1.74.

Take UACGUAGGUGGUUUUCCCCUGAUAGUGCUAAGGGGGCCUGGAGGUUUGGACUGGGCAGAGCUCAACACAGCGUGGCAAAGUGGCUGUGGCUAGACUGCCUCUCUGGAUUCCUCGUCACUCAGCAGGGCAUCUCUGAGAGAUAUGCC [A43G A141U]: the self-cleavage was determined as 1.61.

Take UACGUAGGUGGUUUUCCCCUGAUAGUGCUAAGGGGGCCUGGAGGUUUGGACUGGGCAGAGCUCAACACAGCGUGGCAAAGUGGCUGUGGCUAGACUGCCUCUCUGGAUUCCUCGUCACUCAGCAGGGCAUCUCUGAGAGAGAUGCC [A43G A141G]: the self-cleavage turned out to be 1.29.

UACGUAGGUGGUUUUCCCCUGAUAGUGCUAAGGGGGCCUGGAGGUUUGGACUGGGCAGAGCUCAACACAGCGUGGCAAAGUGGCUGUGGCUAGACUGCCUCUCUGGAUUCCUCGUCACUCAGCAGGGCAUCUCUGAGUGAAAUGCC [A43G A138U]: the self-cleavage is 1.31.

As for UACGUAGGUGGUUUUCCCCUGAUAGUGCUAAGGGGGCCUGGACGUUUGGACUGGGCAGAGCUCAACACAGCGUGGCAAAGUGGCUGUGGCUAGACUGCCUCUCUGGACUCCUCGUCACUCAGCAGGGCAUCUCUGAGAGAAAUGCC [A43C U108C], the self-cleavage was found to be 1.78.

Take UACGUAGGUGGUUUUCCCCUGAUAGUGCUAAGGGGGCCUGGAGGUUUGGACUGGGCAGAGCUCAACACAGCGUGGCAAAGUGGCUGUGGCUAGACUGCCUCUCUGGAUUCCUCGUCACUCUGCAGGGCAUCUCUGAGAGAAAUGCC [A43G A121U]: the self-cleavage stood at 1.23.

For UACGUAGGUGGUUUUCCCCUGAUAGUGCUAAGGGGGCCUGGAGGUUUGGACUGGGCAGAGCUCAACACAGCGUGGCAAAGUGGCUGUGGCUAGACUGCCUCUCUGGAUUCCUCGUCACUCGGCAGGGCAUCUCUGAGAGAAAUGCC [A43G A121G], the self-cleavage was found to be 1.12.

For UACGUAGGUGGUUUUCCCCUGAUAGUGCUAAGGGGGCCUGGAGGUUUGGACUGGGCAGAGCUGAACACAGCGUGGCAAAGUGGCUGUGGCUAGACUGCCUCUCUGGAUUCCUCGUCACUCAGCAGGGCAUCUCUGAGAGAAAUGCC [A43G C63G], the self-cleavage stood at 0.1.

On to UACGUAGGUGGUUUUCCCCUGAUAGUGCUAAGGGGGCCUGGAGGUUUGGACUGGGCAGAGCUCAACACAGCGUGGCAAAGUGGCUGUGGCUAGACUGCCUCUCUGGAUUCCUCGUCACUCAGCAGGGCAUCUCUGAGAGAAAUGCC [A43G], for which the self-cleavage was 1.21.

For UACGUAGGUGGUUUUCCCCUGAUAGUGCUAAGGGGGCCUGGACGUUUGGACUGGGCAGAGCUCAACACAGCGUGGCAAAGUGGCUGUGGCUAGACUGCCUCUCUGGAUUCCCCGUCACUCAGCAGGGCAUCUCUGAGAGAAAUGCC [A43C U112C], the self-cleavage came to 2.1.

For the variant UACGUAGGUGGUUUUCCCCUGAUAGUGCUAAGGGGGCCUGGAGGUUUGGACUGGGCAGAGCUCAACACAGCGUGGCAAAGUGGCUGUGGCUAGACUGCCUCUCUGGAUUCCUCGUCACUCAGCAGGGCGUCUCUGAGAGAAAUGCC [A43G A129G], the self-cleavage was 1.48.

Regarding UACGUAGGUGGUUUUCCCCUGAUAGUGCUAAGGGGGCCUGGAGGUUUGGACUGGGCAGAGCUCAACACAGCGUGGCAAAGUGGCUGUGGCUAGACUGCCUCUCUGGAUUCCUCGUCACUCAGCAGGGCUUCUCUGAGAGAAAUGCC [A43G A129U], the self-cleavage is 0.95.

Turning to UACGUAGGUGGUUUUCCCCUGAUAGUGCUAAGGGGGCCUGGAGGUUUGGACUGGGCAGAGCUCAACACGGCGUGGCAAAGUGGCUGUGGCUAGACUGCCUCUCUGGAUUCCUCGUCACUCAGCAGGGCAUCUCUGAGAGAAAUGCC [A43G A69G], the self-cleavage is 0.58.

With UACGUAGGUGGUUUUCCCCUGAUAGUGCUAAGGGGGCCUGGAGGUUUGGACUGGGCAGAGCUCAACACUGCGUGGCAAAGUGGCUGUGGCUAGACUGCCUCUCUGGAUUCCUCGUCACUCAGCAGGGCAUCUCUGAGAGAAAUGCC [A43G A69U], the self-cleavage is 0.08.

In the case of UACGUAGGUGGUUUUCCCCUGAUAGUGCUAAGGGGGCCUGGACGUUUGGACUGGGCAGAGCUCAACACAGCGUGGCAAAGUGGCUGUGGCUAGACUGCCUCUCUGGAUCCCUCGUCACUCAGCAGGGCAUCUCUGAGAGAAAUGCC [A43C U109C], the self-cleavage came out at 0.26.

Consider UACGUAGGUGGUUUUCCCCUGAUAGUGCUAAGGGGGCCUGGACGUUUGGACUGGGCAGAGCUCAACACAGCGUGGCAAAGUGGCUGUGGCUAGACUGCCUCUCUGGAUUCCUCGUCACCCAGCAGGGCAUCUCUGAGAGAAAUGCC [A43C U119C], for which the self-cleavage was 1.62.

Regarding UACGUAGGUGGUUUUCCCCUGAUAGUGCUAAGGGGGCCUGGAGGUUUGGACUGGGCAGAGCUCAACACAGCGUGGCAAAGUGGCUGUGGCUAGACUGCCUCUCUGGAUUCCUCGUCGCUCAGCAGGGCAUCUCUGAGAGAAAUGCC [A43G A117G], the self-cleavage is 0.71.

With UACGUAGGUGGUUUUCCCCUGAUAGUGCUAAGGGGGCCUGGAGGUUUGGACUGGGCAGAGCUCAACACAGCGUGGCAAAGUGGCUGUGGCUAGACUGCCUCUCUGGAUUCCUCGUCUCUCAGCAGGGCAUCUCUGAGAGAAAUGCC [A43G A117U], the self-cleavage amounted to 1.93.

UACGUAGGUGGUUUUCCCCUGAUAGUGCUAAGGGGGCCUGGAGGUUUGGACUGGGCAGAGCUCAACACAGCGUGGCAAAGUGGCUGUGGCUAGACUGCCUCUCUGGAUUUCUCGUCACUCAGCAGGGCAUCUCUGAGAGAAAUGCC [A43G C110U]: the self-cleavage came out at 1.8.

Regarding UACGUAGGUGGUUUUCCCCUGAUAGUGCUAAGGGGGCCUGGAGGUUUGGACUGGGCAGGGCUCAACACAGCGUGGCAAAGUGGCUGUGGCUAGACUGCCUCUCUGGAUUCCUCGUCACUCAGCAGGGCAUCUCUGAGAGAAAUGCC [A43G A59G], the self-cleavage came out at 0.14.

As to UACGUAGGUGGUUUUCCCCUGAUAGUGCUAAGGGGGCCUGGAGGUUUGGACUGGGCAGAGCUCAACACAGCGUGGCAAAGUGGCUGUGGCUAGACUGCCUCUCUGGAUUCCUCGUCACUCAGUAGGGCAUCUCUGAGAGAAAUGCC [A43G C123U], the self-cleavage is 1.21.

On to UACGUAGGUGGUUUUCCCCUGAUAGUGCUAAGGGGGCCUGGAGGUUUGGACUGGGCAGAGCUCCACACAGCGUGGCAAAGUGGCUGUGGCUAGACUGCCUCUCUGGAUUCCUCGUCACUCAGCAGGGCAUCUCUGAGAGAAAUGCC [A43G A64C], for which the self-cleavage stood at 0.2.

For UACGUAGGUGGUUUUCCCCUGAUAGUGCUAAGGGGGCCUGGAGGUUUGGACUGGGCAGAGCUCAACACAGUGUGGCAAAGUGGCUGUGGCUAGACUGCCUCUCUGGAUUCCUCGUCACUCAGCAGGGCAUCUCUGAGAGAAAUGCC [A43G C71U], the self-cleavage stood at 0.15.

As for UACGUAGGUGGUUUUCCCCUGAUAGUGCUAAGGGGGCCUGGAGGUUUGGACUGGGCAGAGCUCAACACAGCGUGGCAAAGUGGCUGUGGCUAGACUGCCUCUCUGGAUUCCUCGUCACUCAGCAGGGCAUCUCUGAGAGAAGUGCC [A43G A142G], the self-cleavage worked out at 1.5.

Consider UACGUAGGUGGUUUUCCCCUGAUAGUGCUAAGGGGGCCUGGAGGUUUGGACUGGGCAGAGCUCAACCCAGCGUGGCAAAGUGGCUGUGGCUAGACUGCCUCUCUGGAUUCCUCGUCACUCAGCAGGGCAUCUCUGAGAGAAAUGCC [A43G A67C], for which the self-cleavage turned out to be 0.05.

In the case of UACGUAGGUGGUUUUCCCCUGAUAGUGCUAAGGGGGCCUGGAGGUUUGGACUGGGCAGAGCUCAACGCAGCGUGGCAAAGUGGCUGUGGCUAGACUGCCUCUCUGGAUUCCUCGUCACUCAGCAGGGCAUCUCUGAGAGAAAUGCC [A43G A67G], the self-cleavage worked out at 0.46.

With UACGUAGGUGGUUUUCCCCUGAUAGUGCUAAGGGGGCCUGGAGGUUUGGACUGGGCAGAGCUCACCACAGCGUGGCAAAGUGGCUGUGGCUAGACUGCCUCUCUGGAUUCCUCGUCACUCAGCAGGGCAUCUCUGAGAGAAAUGCC [A43G A65C], the self-cleavage is 0.

With UACGUAGGUGGUUUUCCCCUGAUAGUGCUAAGGGGGCCUGGAGGUUUGGACUGGGCAGAGCUCAGCACAGCGUGGCAAAGUGGCUGUGGCUAGACUGCCUCUCUGGAUUCCUCGUCACUCAGCAGGGCAUCUCUGAGAGAAAUGCC [A43G A65G], the self-cleavage was 0.09.

Turning to UACGUAGGUGGUUUUCCCCUGAUAGUGCUAAGGGGGCCUGGAGGUUUGGACUGGGCAGAGCUCAUCACAGCGUGGCAAAGUGGCUGUGGCUAGACUGCCUCUCUGGAUUCCUCGUCACUCAGCAGGGCAUCUCUGAGAGAAAUGCC [A43G A65U], the self-cleavage amounted to 0.15.

For the origin of these results see the RNAGym collection of RNA variant scans (doi:10.7554/elife.90254).
